# Laboratory results: the DeepSol protein solubility set
# Test: soluble on expression in E. coli; label from the status in PepcDB or PDB records
row,Sequence,soluble on expression in E. coli
1,MAAAALRSGWCRCPRRCLGSGIQFLSSHNLPHGSTYQMRRPGGELPLSKSYSSGNRKGFLSGLLDNVKQELAKNKEMKESIKKFRDEARRLEESDVLQEARRKYKTIESETVRTSEVLRKKLGELTGTVKESLHEVSKSDLGRKIKEGVEEAAKTAKQSAESVSKGGEKLGRTAAFRALSQGVESVKKEIDDSVLGQTGPYRRPQRLRKRTEFAGDKFKEEKVFEPNEEALGVVLHKDSKWYQQWKDFKENNVVFNRFFEMKMKYDESDNAFIRASRALTDKVTDLLGGLFSKTEMSEVLTEILRVDPAFDKDRFLKQCENDIIPNVLEAMISGELDILKDWCYEATYSQLAHPIQQAKALGLQFHSRILDIDNVDLAMGKMVEQGPVLIITFQAQLVMVVRNPKGEVVEGDPDKVLRMLYVWALCRDQDELNPYAAWRLLDISASSTEQIL,soluble
2,MTTWTLNHNNLTKFLTHAQLEPSLERESGLIYITVPAGEHELPLFFVIRNEGEVLQLVCYFPYQIQQNQRDTTARLLHLVNRDIDIPGFGMDEEQNIIFYRLVIPCLKGEINEDLLRVYIDTIKLICDSFFHAIGLISTGNMDLDELKKQAKLENNQSDQLEP,soluble
3,MSSNSPNSSNPAATDAPKKTSVEPGSEANNWHITEADEKGFKLTDMIKKLLKPVFSKAIMFDEKEIHVLLTRVFKYYTSPPNKKTAPSASASATTSMSPPKPAANALLELQAPINICGDTHGQYNDLLRIFNACGAATKTQYLFLGDYVDRGGHSLEVIMLLFSLKLAMPRKMHLLRGNHELKAINKNYGFHAELKKRFQREEVYESVYNHFNQVFSYMPLCAIVSKRILCMHGGISPHLKSLDDIRAIPLPLETAKTHPLACDLLWADPEKDAKGFEPNKIRAISNVFGKKEVDDLCKRLDIDLIVRAHQVVEYGYAFFADRRLITVFSASRYQIELCNYAAVVVVNKMLELSFVQLKPEDFEVRRDECEENAKDQTTSNVPH,not soluble
4,MFRVITRGAHTAASRQALIEKIIRVDHAGELGADRIYAGQLAVLQGSSVGSVIKKMWDEEKEHLDTMERLAAKHNVPHTVFSPVFSVAAYALGVGSALLGKEGAMACTIAVEELIGQHYNDQLKELLADDPETHKELLKILTRLRDEELHHHDTGVEHDGMKAPAYSALKWIIQTGCKGAIAIAEKI,not soluble
5,MKRGIIIIEDKKVSVTGNEVWMTATEIAGLFRAGVPAVNAAIKAVRKSDVLNDYEVCRYMRLENGLHADVYALEIIIPIAFRLNTYCTHVFRRWLVEKALAKEKQQAYVMLIHKANGYC,not soluble
6,MKKRFIYHDEKSNKFWWIDYEGDSLAVNYGKVGSIGKFQTKEFDNEEQCLKEASKLIAAKMKKGYQEDPKFNFMDRYYFDDEEIGLHVKTSHPNFQCHFTDPLYMCCWDEESPFGSDEGADALNVLENSLRKEPDLDCADFPQMLIETMWGMKYIAMDSILEEDVRAQLLVDEMSTIQSNMITYATAFGQIKVMGKISHKLKKMGLNALARHQLTAKILQWGDGQDSPILQKMIDDLTAFPHENLEHHHHHH,soluble
7,MGSDKIHHHHHHMRFRERRFYMFYGKLQGENGDRFRAALQTMQELFGSVYASDNLIGLQRAGGFREDKKFVETLRRNAQTQQELSIAWRLHTLLWAAQNVMHLPGDFVECGVWKGFCFAFLTDYLDFAKSDKTLYLYDTYQGIPEAMNSEKRSNQVYEKDIAQDPNAILKVVQQRFANVPNARIVQGMVPDSFAEACPERIALLHIDMNSAASEIAALEALFDKVVPGGMIVFDDYGWTGYAAQRHAENAFMAARGHTVLEIPTGQGLVIKH,not soluble
8,MGSSHHHHHHSSGLVPRGSHMAEFRFIKTSLDGAIIIEPEVYTDERGYFMETFNEAIFQENGLEVRFVQDNESMSVRGVLRGLHFQREKPQGKLVRVIRGEIFDVAVDLRKNSDTYGEWTGVRLSDENRREFFIPEGFAHGFLALSDECIVNYKCTELYHPEYDSGIPWDDPDIGIDWPLEMVDDLIISEKDRNWKPLRENPVYL,soluble
9,REATWVTEKPLTLKIHMHFRDKWVWDENWPVAREVARLTNVKLVGVANRAATNSQEQFNLMMASGQLPDIVGGDNLKDKFIRYGMEGAFIPLNKLIDQNAPNLKAFFKTHPEVQRAITAPDGNIYYLPYVPDGLVSRGYFIRQDWLDKLHLKTPQTVDELYTVLKAFKEKDPNGNGKADEIPFINRDPEEVFRLVNFWGARSTGSNTWMDFYVENGKIKHPFAEVAFKDGIKHVAQWYKEGLIDPEIFTRKARSREQTFGNNIGGMTHDWFASTALFNDALSKNIPGFKLVPMAPPINSKGQRWEEDARQIPRPDGWAITATNKNPVETIKLFDFYFGPKGRELSNFGVPGLTYDIKNGKPVYKDTVLKAAQPVNNQMYDIGAQIPIGFWQDYEYERQWTNDVALQGIDMYIKNKYVLPQFTGVNLTVEEREIYDKYWPDVKTYMFEMGQSWVMGTKDPEKTWNDYQQQLKNRGFYQVMIVMQKAYDRQY,soluble
10,MGRPRYLAYTRQIAMKSWRKAVVGTQATVGDAIAAIESGSIQIALVLDDQNRLLGVVTDGDVRRGLLRGIPLTGLATDIMNRVPVSAPATLSRDDRLHLMRQKSIKQLPLVDEGGHLVVVETLDELLEPRHYANPVLIMAGGLGERLGALTRDVPKPMLNVGGRPLLETIVRNVVQQGFRNIYISVNYKAETIKDYFADGAAFGANIQYVHETERLGTAGALGLFPAPPDLPMIVTNGDILTTINYGALLDFHNGTPAEATMAVREHKVHVPYGVVSTSDGFLQAIREKPTESWFVSAGIYVIGSSVFGHVAPGVSIDMPTVLERVIAGKGRVAVYPIREYWLDIGRLEDFEQAHAEFHEVFPLEHHHHHH,soluble
11,RIGVIGTGAIGGFYGLMLAHAGHDVHFLLRSEFEAVNRAGLSLNSAVHGFRRLAPVQAYHSAQDMPPCDWLLVGAKTTGNDELAPLIRAAAAPGAKVLLLQNGLGVEERLRPLLPESLHLLGGLCFICVHRGEPGVIEHQAYGGVNLGYHSGPADERRRREIVEEGAALFRESGLESTAMPDLEQARWQKLVWNIPYNGLSVLLKSSTAPLMANADSRSLIEAIMEEVIGAAGACGFILPEGYADQLLAATERMPDYRPSMYHDFAHGRPLELAAIYAAPLARAAA,not soluble
12,MKQAIVYWKTLKAGILTESDEGYSFAYDKDYLTMPEAQGISLTMPLREEPFQSNMLHPFFDGLIPEGWLLDIAQKNWKIDSRDRMALLLACCRDCIGAVSIEPLNTTEDDE,not soluble
13,MAHHHHHHMCDPLVERFISDIIRDPQAWKRAVTSPDNRCCLLPTSNVIRSLAGPLFRRGCVDNVSSLRFLTTLRRDTLSGGNVQRVSMKRKDLRGPWDHRTRVSEEDQPNILIQLLVRQLERNGFGTSYRKAVYSLLGKQVKEMSKKKRQHDAAATAKTMKLNARRIEHLLMEEYNERKKTCDREGRRRQALVRGFFNKASVVVENEEFIGRRTIFQDALDECFAIKTLMEGETQKLTGIPPEHQRNYFAIQQKEKHERECLLARFETQRRAIYLQLQHDIKNSIKSEIRRIMRREKHIEELYKKHGCGK,not soluble
14,MGSDKIHHHHHHMPRITQEISYNCDYGDNTFNLAIDIGGTLAKVVFSPIHSNRLMFYTIETEKIDKFMELLHSIIKEHNNGCYRMTHIIATGGGAFKFYDLLYENFPQIKGISRFEEMEGLIHGLDFFIHEIPDEVFTYNDQDGERIIPTSSGTMDSKAIYPYLLVNIGSGVSILKVTEPNNFSRVGGSSLGGGTLWGLLSLITGAQTYDQMLDWAQEGDNSSVDMLVGDIYGTDYNKIGLKSSAIASSFGKVFQNRMTSNKSLENNENKLYSSHESIEKNNGQMFKNPDICKSLLFAISNNIGQIAYLQAKINNIQNIYFGGSYTRGHLTTMNTLSYAINFWSQGSKQAFFLKHEGYLGAMGAFLSASRHSSTKKTST,not soluble
15,GSHMAQQNILSVHILNQQTGKPAADVTVTLEKKADNGWLQLNTAKTDKDGRIKALWPEQTATTGDYRVVFKTGDYFKKQNLESFFPEIPVEFHINKVNEHYHVPLLLSQYGYSTYRGS,soluble
16,RPAIRKRLLKPKVLDSSPRALVGHRAEVLEDVGATSGQVRLDGSIWSARSMDPTHTFAEGEIVSVIDIQGTTAIVWKEA,soluble
17,MFKKFTREDVHSRSKVKSSIQRTLKAKLVKQYPKIEDVIDELIPKKSQIELIKCEDKIQLYSVDGEVLFFQKFDELIPSLKLVHKFPEAYPTVQVDRGAIKFVLSGANIMCPGLTSAGADLPPAPGYEKGTIVVINAENKENALAIGELMMGTEEIKSVNKGHSIELIHHLGDPLWNFSVE,not soluble
18,MAHHHHHHMGGAIYNAVNIAEIVKRRIAGLHQITELGSELVRDEYEPIDRTQNPENVVVERKVSTILITLSRNCLDKSNPGYQEPIADSEVTEQERRDPNMSRRGGRGGIRGGRGGSRGGRGGSRGGRGGSRGGRGVAAIDRRDDREN,not soluble
19,MSLTLSDKDFEVLRDFIYNHCGIYFHTSKKYFLESRITRRIEATSSPNLMTYMGLLKSGPGKSDELLKLLTEITTNETCFFRNPPQLKALENVFLPEIVAAKGKIGFRKLRIWSAGSSSGEEAYTMAMLLLEKRATILKDWIIEIVGTDISETVLAQAREGVYNAYSVRNTPDYYKKKYFRQEPGERYVLSPDVKKLVSFNHLNLYEDAKMVFMKSFDFIFCANVLIYFDLASKTKVVQHYYNNLQPYGYFFVGQSESLHGVNDKFKTVHFPGGFAYKKEGHHHHHH,soluble
20,MSHKLPSATDKYYFEVLRNEEKSEMLKFLLESFRVDEPLNRASKISCEEIEKCLDGALDRALKTESSILARSQDTHEIVGCMLNSVWRRDESLCTPGEEDKDFEFHTIRKEVAMVAEILNELHESFWSLRPDQDVVLHFEISSVSVNHRRQGLASKFMNWTENKKFLDTFGATGIATEASSLANQALLAKRGYSTIATTLLDTKVDPDTGKPILVCDDGTDRVNLMFKTF,not soluble
21,MNYQLVKQVRENNPLRKSFIDLAVKTFDLSFEEWYQQGYWTDAYIPYAFVERNKVIANASANIIDLRWQGEPRRYIQIGTVMTEPDHRNKGLAGQLIHHILQDWQQEADAFFLFANPTTVDFYPKFGFTRSEEYQYIMPVSPRAGDFRKLDMDSPDDVALLRHYYEKSNPFSPLRVEHNFGLLMFYCSAFMKHFVYYSAKNEAVVIAMQNGPVLICFDLFCDVGKSLSTLVNELADDHVYQAILGFTPSEDRLGEYEKIEGEDILFVYDQKENLFKDRKLMFPLLAHA,not soluble
22,MGFSFLLATVQKERMKRRSRTRSRSRRRAKQDPKTWVARYIPQDLLIEILTRLPPKSVMRFKCVSKFWSSLLSSRYFCNRFLIVPSQPQPSLYMCLLDRYNYSKSLILSSAPSTSPYSFVFDQDLTIRKMGGFFLRILRGFIFFTRNLKARIYNPTTRQLVILPTIKESDIIAGPPYNILYFICHDPVNDRYKLLCTVSYASDNDLQNLKSELWIFVLEAGGSWKRVANEFPHHVPSHLDLNMNGVLYFLAWTDPHTCMLVSFDVRSEEFNTMQVPRNAGDTLPRQEKGVVNRVW,not soluble
23,MGSDKIHHHHHHMRVLFVAPNYYPHIGGVERHVREVSLELQKDGHSITILVPKHDSSYGDFEREGNIEVVRLNKPQTKLFTGLERVLQVAGVSGRFLKADIVNFHDVATMWRYGLWIYPILRVLGKKVYITFHGWEGHFPPKDKIVARRKLAARLADGTMCVGHFIEKWYGTRADVVTYGGVHRSSLPEAHENSVVFVGRLAKDSGIDSYLRAWEWIVRDHPELRLVICGDGAMKKELEDFVCHTGLRNVEFLGLVENPLPYVTDAKVVFTSGYLGILEAFSRKKPVVAVYDNELKKDYLEMMPDSRRLMWIARDSKEVARCVDEALLDREKTERAYRYSLENSWTKVKEDYYRLWNVDGEHGESHGGRGR,not soluble
